Where no end group is shown, it is not given here.
Assays:
[1] = molecular target: T1, anti-CD28 scFv (VH - linker 1 - VL) (biotinylated (site not stated)); assay: same phage ELISA, wells pre-incubated with soluble CD28 (competitor)
[2] = molecular target: T1, anti-CD28 scFv (VH - linker 1 - VL); assay: phage ELISA; biotinylated anti-CD28 scFv on neutravidin plate, clonal phage supernatant, anti-M13-HRP detection;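 further: before phage addition, wells were pretreated with soluble CD28 protein in blocking buffer, or with blocking buffer only as the comparison, then phage were added without washing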
Method: Clonal phage were harvested as crude supernatants and screened via standard enzyme linked immunosorbent assays (ELISAs). […] Prior to the addition of clonal phage, wells were incubated with blocking buffer and CD28 soluble protein or blocking buffer alone. Without washing or aspirating, clonal phage supernatants were then added to the wells and incubated for a short time. Wells were then washed followed by detection of bound phage using a horse radish peroxidase conjugated anti-M13 antibody.

[3] = molecular target: T2, Anti-CD28 Fab (SEQ ID NOs: 696, 697); assay: phage binding ELISA; biotinylated anti-CD28 Fab on neutravidin plate, clonal phage supernatant, anti-M13 HRP detection
T2 construct: Biotinylated and captured on neutravidin coated plates in the phage ELISA
T2 sequence (VH, as listed by the source, chain 1 of 2): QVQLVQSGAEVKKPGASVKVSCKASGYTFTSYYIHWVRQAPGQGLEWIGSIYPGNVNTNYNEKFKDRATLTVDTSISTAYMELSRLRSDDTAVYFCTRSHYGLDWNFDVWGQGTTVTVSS
T2 sequence (VL, as listed by the source, chain 2 of 2): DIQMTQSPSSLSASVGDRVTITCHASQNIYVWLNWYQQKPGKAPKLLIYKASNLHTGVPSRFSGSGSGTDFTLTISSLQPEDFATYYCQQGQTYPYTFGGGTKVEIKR

[4] = molecular target: T2, Anti-CD28 Fab (SEQ ID NOs: 696, 697); assay: phage binding ELISA; Fab-coated wells pre-incubated with CD28 antigen as competitor, anti-M13 HRP detection;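 further: crude clonal phage supernatants from panned colonies added to wells after blocking buffer plus CD28 treatment, bound phage measured after a brief incubation and washing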
Method: (§1) After panning, phage infected bacteria were plated out and colonies picked into 96 well blocks. Clonal phage was then amplified and separated from bacterial cells via centrifugation.
(§2) Clonal phage were harvested as crude supematants and screened via standard ELISAs. […] Prior to the addition of clonal phage, wells were incubated with blocking buffer and CD28 antigen or blocking buffer alone. Without washing or aspirating, clonal phage supematants were then added to the wells and incubated for a short time. Wells were then washed followed by detection of bound phage using a horse radish conjugated anti-M13 antibody. Clonal phage of interest were then sent for sequence analysis.

[5] = molecular target: T3, PSMA Fab (SEQ ID NOs: 19, 20); assay: competition ELISA, peptide titrated against 0.3 nM PSMA Fab on captured biotinylated PSMA
T3 construct: also called 006 PSMA Fab; anti-PSMA Fab
Method: The concentration of peptide required to reduce the maximum signal by 50% (IC₅₀) was calculated in Graphpad Prism software.

[6] = molecular target: T4, Anti-CD28 Fab (SEQ ID NOs: 696, 697); assay: phage binding ELISA; Fab wells pre-incubated with CD28 antigen as competitor, anti-M13 HRP
T4 construct: Biotinylated and captured on neutravidin coated plates in the phage ELISA
T4 sequence (VH, as listed by the source, chain 1 of 2): as the sequence (VH, as listed by the source, chain 1 of 2) above
T4 sequence (VL, as listed by the source, chain 2 of 2): as the sequence (VL, as listed by the source, chain 2 of 2) above
Method: as §1, §2

[7] = molecular target: T4, Anti-CD28 Fab (SEQ ID NOs: 696, 697); assay: phage binding ELISA; biotinylated Fab on neutravidin plate, clonal phage supernatant, anti-M13 HRP;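 further: clones picked after panning, added to wells pre-incubated with CD28 antigen or with blocking buffer only, no wash before phage addition, bound phage read after washing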
Method: as §1, §2

T1 sequence (scFv, as listed by the source): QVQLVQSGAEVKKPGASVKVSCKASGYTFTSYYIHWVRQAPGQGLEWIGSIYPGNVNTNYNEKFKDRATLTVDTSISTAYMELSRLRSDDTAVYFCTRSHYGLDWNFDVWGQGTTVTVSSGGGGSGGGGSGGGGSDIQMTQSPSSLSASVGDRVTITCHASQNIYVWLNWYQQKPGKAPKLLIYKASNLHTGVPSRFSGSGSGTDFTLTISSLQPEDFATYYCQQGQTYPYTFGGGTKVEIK

Row | Binder | CD28 scFv signal in presence of CD28 [1] | CD28 scFv signal [2] | Anti-CD28 Fab signal (phage binding ELISA) [3] | Anti-CD28 Fab signal in the presence of CD28 (phage binding ELISA) [4] | also measured
1 | MDWCPRHMWNYCFA (peptide, not shown: large carriers, cysteine pairing not given here; also: displayed on phage as fusion to pIII, linker and pIII sequence not given here, Clonal phage supernatant) [Phage-34] | 0.242 | 2.71 |  |  | 
2 | YCEGHAPEYIGKCL (peptide, not shown: large carriers, Clonal phage of the Peptide-87 optimisation library, tested as crude supernatant) [Phage-497] |  |  | 2.1 | 0.07 | 
3 | MDWCPRDLWHLCFS (peptide, not shown: large carriers, cysteine pairing not given here; also: displayed on phage as fusion to pIII, linker and pIII sequence not given here, Clonal phage supernatant) [Phage-27] | 0.29 | 2.59 |  |  | 
4 | YCEGHLPEYREKCL (peptide, not shown: large carriers, Clonal phage of the Peptide-87 optimisation library, tested as crude supernatant) [Phage-487] |  |  | 1.96 | 0.07 | 
5 | YCEGHLPEYRNKCL (peptide, not shown: large carriers, Clonal phage of the Peptide-87 optimisation library, tested as crude supernatant) [Phage-493] |  |  | 2.38 | 0.17 | 
6 | MDWCPRDLWDLCFA (peptide, not shown: large carriers, cysteine pairing not given here; also: phage-displayed pIII fusion, pIII and linker not given here, Clonal phage supernatant) [Phage-25] | 0.219 | 2.7 |  |  | 
7 | QCVWDLTNYWMNCD (cysteine pairing not given here; also: biotinylated (site not given here), PSMA peptide mask (P2)) [Peptide-206] |  |  |  |  | IC50 [5]: 28.7 µM
8 | MDWCPRDLWHECFA (peptide, not shown: large carriers, cysteine pairing not given here; also: phage-displayed pIII fusion, pIII and linker not given here, Clonal phage supernatant) [Phage-26] | 0.277 | 2.71 |  |  | 
9 | YCEGHSPEYMAKCL (cysteine pairing not given here; also: displayed on phage as fusion to pIII, linker, pIII sequence and order not given here, Clonal phage supernatant; not shown: pIII filament protein of the bacteriophage to which the peptide is fused) [Phage-526] |  |  |  |  | Anti-CD28 Fab signal in the presence of CD28 [6]: 0.07; Anti-CD28 Fab (SEQ ID NOs: 696, 697) signal [7]: 2.35
10 | YCEGHSQEYLWKCL (peptide, not shown: large carriers, Clonal phage of the Peptide-87 optimisation library, tested as crude supernatant) [Phage-489] |  |  | 2.36 | 0.07 | 
11 | YCDGHLPEYMSKCL (cysteine pairing not given here; also: displayed on phage as fusion to pIII, linker, pIII sequence and order not given here, Clonal phage supernatant; not shown: pIII filament protein of the bacteriophage to which the peptide is fused) [Phage-527] |  |  |  |  | Anti-CD28 Fab signal in the presence of CD28 [6]: 0.14; Anti-CD28 Fab (SEQ ID NOs: 696, 697) signal [7]: 2.35
12 | YCDGHLPEYMMKCL (cysteine pairing not given here; also: displayed on phage as fusion to pIII, linker, pIII sequence and order not given here, Clonal phage supernatant; not shown: pIII filament protein of the bacteriophage to which the peptide is fused) [Phage-530] |  |  |  |  | Anti-CD28 Fab signal in the presence of CD28 [6]: 0.11; Anti-CD28 Fab (SEQ ID NOs: 696, 697) signal [7]: 2.34
13 | YCDGHLPIYMSKCL (cysteine pairing not given here; also: displayed on phage as fusion to pIII, linker, pIII sequence and order not given here, Clonal phage supernatant; not shown: pIII filament protein of the bacteriophage to which the peptide is fused) [Phage-536] |  |  |  |  | Anti-CD28 Fab signal in the presence of CD28 [6]: 0.08; Anti-CD28 Fab (SEQ ID NOs: 696, 697) signal [7]: 2.32
14 | MDWCPMHLWHQCFN (peptide, not shown: large carriers, Clonal phage supernatant) [Phage-39] | 0.299 | 2.56 |  |  | 
15 | YCEGHAPEYMAKCL (peptide, not shown: large carriers, Clonal phage of the Peptide-87 optimisation library, tested as crude supernatant) [Phage-499] |  |  | 2.47 | 0.08 | 
16 | YCEGHSSEYIQKCL (peptide, not shown: large carriers, Clonal phage of the Peptide-87 optimisation library, tested as crude supernatant) [Phage-490] |  |  | 2.25 | 0.1 | 
17 | YCWSHSPPFIKKCY (peptide, not shown: large carriers, Clonal phage of the Peptide-87 optimisation library, tested as crude supernatant) [Phage-492] |  |  | 2.06 | 0.06 | 
18 | MDWCPIDLWNECFF (peptide, not shown: large carriers, cysteine pairing not given here; also: phage-displayed pIII fusion, pIII and linker not given here, Clonal phage supernatant) [Phage-19] | 0.187 | 2.52 |  |  | 

Row | Binder | CD28 scFv signal in presence of CD28 [1] | CD28 scFv signal [2] | Anti-CD28 Fab signal (phage binding ELISA) [3] | Anti-CD28 Fab signal in the presence of CD28 (phage binding ELISA) [4] | also measured
19 | MCQWDKINYWMDCD (cysteine pairing not given here; also: biotinylated (site not given here), PSMA peptide mask (P2)) [Peptide-205] |  |  |  |  | IC50 [5]: 5.52 µM
20 | MDWCPRFMWDECFN (peptide, not shown: large carriers, Clonal phage supernatant) [Phage-33] | 0.256 | 2.68 |  |  | 
21 | YCDGHSPIYMWKCL (peptide, not shown: large carriers, Clonal phage of the Peptide-87 optimisation library, tested as crude supernatant) [Phage-498] |  |  | 2.47 | 0.09 | 
22 | HCSGHHWLQVWKCF (peptide, not shown: large carriers, Clonal phage of the Peptide-87 optimisation library, tested as crude supernatant) [Phage-491] |  |  | 2.31 | 0.07 | 
23 | MDWCPRDLWSECFF (peptide, not shown: large carriers, Clonal phage supernatant) [Phage-28] | 0.218 | 2.57 |  |  | 
24 | MDWCPIYLWSECFN (peptide, not shown: large carriers, Clonal phage supernatant) [Phage-21] | 0.513 | 2.63 |  |  | 
25 | DCHWNKATWWMDCE (cysteine pairing not given here; also: biotinylated, site not given here, PSMA peptide mask (P2)) [Peptide-207] |  |  |  |  | IC50 [5]: 9.86 µM
26 | QCVWDRGTWWMACD (cysteine pairing not given here; also: biotinylated, site not given here, PSMA peptide mask (P2)) [Peptide-209] |  |  |  |  | IC50 [5]: 10.2 µM
27 | MDWCPRERWVDCFF (peptide, not shown: large carriers, cysteine pairing not given here; also: displayed on phage as fusion to pIII, linker not given here, Clonal phage supernatant) [Phage-9] | 0.489 | 2.04 |  |  | 
28 | MDWCPIHLWHVCFN (peptide, not shown: large carriers, cysteine pairing not given here; also: displayed as fusion to phage pIII, Clonal phage supernatant) [Phage-20] | 0.167 | 2.53 |  |  | 
29 | YCEGHLPEYLGKCL (peptide, not shown: large carriers, Clonal phage of the Peptide-87 optimisation library, tested as crude supernatant) [Phage-486] |  |  | 1.23 | 0.08 | 
30 | YCEGHLPEYLAKCL (peptide, not shown: large carriers, Clonal phage of the Peptide-87 optimisation library, tested as crude supernatant) [Phage-488] |  |  | 2.34 | 0.1 | 
31 | MDWCPRDMWDECFA (peptide, not shown: large carriers, cysteine pairing not given here; also: peptide displayed as fusion to phage pIII, Clonal phage supernatant) [Phage-30] | 0.25 | 2.59 |  |  | 
32 | MDWCPRDMWSECFA (peptide, not shown: large carriers, Clonal phage supernatant) [Phage-31] | 0.293 | 2.7 |  |  | 
33 | MDWCPLYLWNECFN (peptide, not shown: large carriers, Clonal phage supernatant) [Phage-24] | 0.247 | 2.61 |  |  | 
34 | YCEGHLPEYIQKCL (peptide, not shown: large carriers, Clonal phage of the Peptide-87 optimisation library, tested as crude supernatant) [Phage-495] |  |  | 1.9 | 0.08 | 
35 | YCEGHLPEYIWKCL (peptide, not shown: large carriers, Clonal phage of the Peptide-87 optimisation library, tested as crude supernatant) [Phage-496] |  |  | 2.32 | 0.09 | 
36 | YCEGHLPEYLEKCV (peptide, not shown: large carriers, Clonal phage of the Peptide-87 optimisation library, tested as crude supernatant) [Phage-494] |  |  | 2.11 | 0.06 | 

Reference: US20260242478A1 (published 2026)
